Measured values as given in the DeepSol protein solubility set.

assay: soluble on expression in E. coli; label from the status in PepcDB or PDB records

Soluble on expression in E. coli, not soluble:
MGSDKIHHHHHHMNWKVTIKNTIEELAKLKKDVKIENEGDPEHELSDAEDKVMKIELEEEFKPTMYSLYEFKSLNDKRIASIDSSSRYLRDFSVNTCLIGLSVYSNREGFIDGPFTVDIPYIGISSYREILESLKIDDINVRYKNVVNYYYVNEPNNEYKIDDIADELRLEAENVGLKRVIQNHDIVIIDGPIYPTPLELTEEINLETEARRKHRLAYAKLVNERIELLNNNVIGVVKRLENSKKLWRVKEINETIGNVKRMKDVTIIELIDERLCRKNYEYVCTIGPFKIEYALEVKDEDGRNVIEKVPTKYAYYVIIRKKYFPPTFLRIESTNKNLDISPVLSRLTERLMPTYIEIVDRRSKRISASLFLYAYEIASNYLNIIHDDKMGYLSVISQFTSE, MGSDKIHHHHHHMNYPFIYPGAIHMHTTYSDGSATFPHLIAAAREAGLRWVIVTDHDTLEGLPFAGWHDDVLVIVGHEITPDHNHFLALNVDTVISNELPPQQFIDEVYQRGGFGIIAHPDERVRNSFKDIYRWDDWTIDGPSQRTGRVVGLELWNFMSDWGEHLTERNKLALVLYPQLGLSGPTLATLAWWDRLNMVGRRTFGIGGVDAHGFKRKAPWGEIEVFPYPWIFRTLTNYLLLPEPLSSDATTATNQVYAALTAGRCYFVNRLDGDAPSIIFRLSRPGDLAEIGDTISLAGGPLLVEVDVGADAYARLIVNGEVMTSGIRRIRQTVTDDGVYRVEAYWGGKPWLFTNPIFVTAADAGREGSL, MGSDKIHHHHHHMNYTKMRGVEEKLVESIVRRTIDTAEARLRKYVFTPTGEKRPERKPLAKLKEEIESFLRTRENKLLVLYGLRGVGKTTMLAQIYFKLLPQIPRERLVYVSLDKLRPLGISLNYFVQAYERLLGERIEEFSQPTFLFIDEAHYDENFGITVKDLYDSASNLMIVVTGSSSLPLKLDPDLMRRAKKLRVPPLTFTEYLLLKRGLQIPEELSAALKHAFLNCDFSGVEEKLDGVLLKFTEKDVEDYLIQGSLPIYLTSKNPLEDAYEILRKIVEVDLVLEGLSETTREKALGLLLLLASGESLAYDELSSTLGLAKGTVEKLIEKLEDLEVIFPVRAYGSLGKVARKTPKYKFLAPMLRSAVLYEFGLFERDSKTLGMLLEDAVALYLHLLAKEKKLGLHYDAQKGGADFILKGQSRGIVIEVGWGKKGLRQVIKTMKKTGLNCGVVIYNGPLKKKGEVWFVPRELFLLML, MGSDKIHHHHHHMNYTQGSLFENIENIPLAGRMRPRNLSDYIGQEHILEKGKALRNMLEKDSITSMILWGPPGVGKTTLAMIIASTTKCNFVEFSAATSGIKEIKDIMIKAEKDRLFGIRTLLFIDEIHRFNKSQQDTFLPHVEKGDIILIGATTENPSFEVNSALLSRCRVFVLKPLSNNDIVKLLKNALTDTRGFKNKNIQISEDLLTLIAVYSNGDARTALNVLEMAVLSSKLEHGVVTINKGILEDCMQNKALIYDKNGEEHYNLISALHKSMRNSDVDAAIYWLARMLEGGEDPLYIARRLIRFSSEDIGVADTNALNVTVNVYNSCHYIGMPECSVNLTEAVVYLSLAPKSNSIYMAYEKAKKDAKETLASGVPLHLRNAPTKLMSDLGYSKGYKYAHDFDNKVVDMQCLPDNLKDEKYYFPTTEGREKLFKERLHYIKKKKHTVNKSI, MGSDKIHHHHHHMPATFAHCLLAREAMERFGKSKLFPGVLKTKNHFVVMGATGPDYPYLTDVMKYGVLHIGHNWANRMHYENIDGFILEGIKKLSSMNKTSEEFKNCLAWFSGYVSHVVADSYLHPVVNSTVHGIYLFTNEKHGRCELVQDIYIFKKMTDTDICAAAARDRNSFGYLSILDDCSDPQDLDKIHPHIRVFWSELLKAAHPYASDYFGDLNLDEWHKNYKGRVDFAADSQSIFRHVLDIANAPRYVPWTASSISKEERSKYIDNVETPRGTKQSYDTLFSLVADQIAATWNALFPYIKNGQVPPATLVKDWNLDTGVDESKIDFWKEA, MGSDKIHHHHHHMPETLNLNYYYGNEADQYSFYRIPKTLLTDRRYKGVSLEAKVLYGLLLDRMGLSARNGWLDNNGRVFLYFTQEEAMTMLGCGKDKVTKLFRELEGIGLMERKKQGQGHPARIYVKNFILEPEPTAPVQTAENQQSRPLPSAAVKTAEKPQSAPRKTSGQECGISAPNNTDINKTEKSDTDLSILPPTPSAVSSPAGKRAPRRMGLDEMESYRELIMENIDYDILLERYPYEKDLLDGYVELMLEVCCSTRESVRICGQEVPTEVIKSRFLKLNSEHIGYVMDSLKSNTAKIGNIKAYTLAALYNAPVTMGQYYTSLVSHDMAHGLLSG, MGSDKIHHHHHHMPFVFACLSIKIPRKGTVMAEPLATTPIRYSFGADEHLFAEVSESMSLEAFFKGMAVTRAVERMALDGVLDVCLANASFQVRFDPDRIAPEALLEAVRGAEAQAVAERSLQTRIIEIPVLYNDPWTHETLMRFRDRHQDPTSTDLEYAARINGLADVEAFIAAHSGAPWFVSMVGFVAGLPFMFQMVERERQLQVPKYLRPRTDTPKLTLGHGGCFGCIYSVRGAGGYQMFGVTPAPIYDPQQTLNYLKEHMVFFRPGDIVQFKPIDRRTYDQAVAEVEDGCFDLRIRPVAFSLDAFLADPVGYPKSLQEVLA, MGSDKIHHHHHHMPFVRLDVRRPGHADRIVYVPVTTRTSYLLKSSEGGMVLRFDRGDVVAARVRPLNIGDVGALLSRRRRHKRFQLPLGRGAVLQPLLHISGPEGRELARALGSLAGWGFGTASDNLQKTLSRHFNGPQAEAPERLPTVEPKIAVALHLHYPDLWPEFEALLEATGRQFQLFLTLTRPDAALAQRVQARFPGAEITVYENRGRDVGPFIQLLREGKFDPFDLICKLHGKKSGQSGPRMVLGEIWRQVSAFDLIGSRGVVDRIIANFERSPDTQMIGSRRFRLPNEWKGEKSAWGENRAMALNLLETMGMPSSSRLDFFAGTMFWVRRGALEPLRRLDLPLAAFPEETGQQDGTLQHALERVLGMICTKIGVASDGDMTTDSREADPIG, MGSDKIHHHHHHMPGICLCFQVHRPVILKRYTFFDIGRHHLYEDQEANRRILNQLADSCYLPANRLLLRLMEKSEGRFRVAFALSGAMIHLCEKYRQDIMEGFRRLADTGCVEFLNEADPHSLAFLFSPREFREQIEAHKKKIQELFGQNPTTFHCTDLIYSNELAGVAEEMGHSAFLAEGGQGLPGFQGPDFVYQPADCARLKLLLRNYHLSADIRLHFSDGSRNGHPFPAGWFAERILHSLENSGGQVVNLFLDYETSGKYLTPDRGNSEFLQALSAEMLGQPDFHFQLPAEIAQRYDPQARLDVTDSASGFDIHRNLTTVAGNAMQQDALRVLYDLEEAVRKRKDADCLAIWRMLQTSDYFNYMCTEGFADRVRRRDSGPYGSPYESYINYMNILEDFSRTLQS, MGSDKIHHHHHHMPGTAARPAPIRVTYAEVMQRIIGTEVEYGISSPSDPTANPILTSTQAVLAYAAAAGIQRAKRTRWDYEVESPLRDARGFDLSRASGPPPVVDADEVGAANMILTNGARLYVDHAHPEYSAPECTDPLDAVIWDKAGERVMEAAARHVASVPGAAKLQLYKNNVDGKGASYGSHENYLMSRQTPFSAVIAGLTPFLVSRQVVTGSGRVGIGPSGDEPGFQLSQRADYIEVEVGLETTLKRGIINTRDEPHADADKYRRLHVIIGDANLAETSTYLKLGATSLVLDLIEEGMDLSDLALARPVHAVHVISRDPSLRATVAMADGRELTALALQRIYLDRVAKLVDSRDPDPRAAHVVETWAEVLDLLERDPMECAEILDWPAKLRLLEGFRHRENLGWSAPRLHLVDLQYSDVRLDKGLYNRLVARGSMKRLVTEQQVLDAVDSPPTDTRAYFRGECLRRFGADIAAASWDSVIFDLGGDSLVRIPTLEPLRGSKAHVGALLDSVDSAVQLVEQLTAT, MGSDKIHHHHHHMPHHQYVLTLSCPDRAGIVSAVSTFLFENGQNILDAQQYNDTESGHFFMRVVFNAAAKVIPLASLRTGFGVIAAKFTMGWHMRDRETRRKVMLLVSQSDHCLADILYRWRVGDLHMIPTAIVSNHPRETFSGFDFGDIPFYHFPVNKDTRRQQEAAITALIAQTHTDLVVLARYMQILSDEMSARLAGRCINIHHSFLPGFKGAKPYHQAFDRGVKLIGATAHYVTSALDEGPIIDQDVERISHRDTPADLVRKGRDIERRVLSRALHYHLDDRVILNGRKTVVFTD, MGSDKIHHHHHHMPIHLIWGNDYEACNREIEELINSVIDSSWKSFNYSQLDGNDPKQNLRALEEAQSAPLGSGGRIVLVRRSPFCNGCSIELGNKLEQVIKLIPDKTHLILSNANKPDKRLKTTKLIEKSIQSNTLSQEKSFILPLPWDINGQRNLVKNNLERLNLKMNYETIDLIVESIGNDSSLINTELQKLSLFSEAVNTNLTTDKPREISKELVKKLIQNNSTNALEIANSLLKGEKIIALNKIQSLLKNGEPALRLITTLTGQSRGWLWVHLLDSQGNQDVKEIAKLAGIANPKRIFVIRKQIQGKSLGTLLELMKKLLKIEASIKSGIKPIDSFKDNLLTDSKILANN, MGSDKIHHHHHHMPIKSRAVVIPKRNTIEIRTVQVNEPKAGDVLIKTAFTSISAGTERMLLDGRLPQPQLLFPVVPGYETVGQVVQVGSKAPKELLGQWVYIGGARCFRGVNAAWGGQSEYITAEHERVVPLGSLDPATGVLLALAATALHGIKIGQIRRSDRVLVLGQGIVGQLAARLAKYAGAQHVAVADRVAVRLQASQADQVIDVTRESLDEAIGEAKVDVLIEATGSMGALSGALPLLANHGRVVLLGYYDHINIPYAPVFMREAQILVAREWEFGPDGDLPRVRDLLANGDLKVDGLLTHHVPLDRIQAAYRLAPGRPGLFEGCCHVAAKRYRRSVVLTRQGAMRISLEREMALCPPIQKRNNQVQQHECSPSTAKAAWENHSSPPIW, MGSDKIHHHHHHMPKLKLIGVDLGGTTFSVGLVSEDGKILKKVTRDTLVENGKEDVIRRIAETILEVSDGEEAPYVGIGSPGSIDRENGIVRFSPNFPDWHNVPLTDELAKRTGKKVFLENDANAFVLGEKWFGAGRGHDHIVALTLGTGIGGGVVTHGYLLTGRDGIGAELGHVVVEPNGPMCNCGTRGCLEAVASATAIRRFLREGYKKYHSSLVYKLAGSPEKADAKHLFDAARQGDRFALMIRDRVVDALARAVAGYIHIFNPEIVIIGGGISRAGEILFGPLREKVVDYIMPSFVGTYEVVASPLVEDAGILGAASIIKERIGG, MGSDKIHHHHHHMPLLDIRNLTIELDTPHGRVKALERVSLTLNPGEVHGLVGESGSGRTLLAKAILGIPGHNWTIQADRMMWDGQNLMDMSPSERRVLMGSEMAMIFQDPISSLDPAIAVGTQIIEAMPENKELPWWKRGSDKRKKAQQWLHKVGIKETQKIMSSYAWELSDGECQKVMIAIAVANQPRLLIADEPTNSMEVRTQAQIFRLLSKLNQLQNVSILLISHELETLSQWCDRLTVMYSGQVMESGVTSDVIANPYHPYTKALLDNIPDYSNPEHHKTMMQTLPGSAPALQHLPIGCRLGPRCPQAQKLCVNQPSLCHQKDRYFACHFPYHNEPCHEEPLTKS, MGSDKIHHHHHHMPLVLIRKSDYSYETLKPLIFGMLDRLGGHRMAPGSRVLIKPNLLTPATPRQAILTHPFIVRAAVEYALNQNARPLVADSPAMGSFSKILRDSGIQEALAPLKVDYRPFQDSLKIDIGEPFGSIDIAREVIEADFIINLPKFKTHSQMLLTLGVKNLFGCIVGYRKPEWHMKTGVNRPLFARLLVQLYHRISPAFTILDGILALEGEGPGKRGTPKGGWPAPRQRQRPGPRQDRLPDT
